Source: EP3639857B1, “ERYTHROPOIETIN COMPOSITION WITH IMPROVED STABILITY AND METHOD FOR PREPARING SAME” (Hankook Korus Pharmaceutical Co. Ltd., priority 2017, dated 2018)

Legend:
B6D2F1 mice = assay: Pharmacodynamics in mice after intraperitoneal administration, CBC test; type: in vivo; settings: for RBC Increase (%) / Reticulocyte (×10^9/L) Increase (%): 7d vs 0d
Protocol: Pharmacodynamics were measured by a method of intraperitoneally administrating the PEG-EPO conjugates to B6D2F1 mice (female, 7 weeks old, body weight of 20.02±0.88 g). Specifically, 1.25, 2.5, 5, or 20 µg/kg of EPO, PEG-EPO-TS, or PEG-EPO-Mircera drugs were administered, after 7 days, 200 to 300 µl of the blood was collected from the facial vein by using a lancet into a micro EDTA tube (MiniCollect, Greiner Bio One International GmbH), the shaker was used to sufficiently mix the EDTA to prevent coagulation, and then, the CBC test was performed by using the ADVIA 2120i (Siemens AG) equipment within one hour. The results are shown in Table 10 below with the comparison of CBC results before drug administration.

[1] = Pharmacokinetics in rat after intravenous administration, erythropoietin in blood by ELISA, non-compartmental analysis; type: in vivo; settings: SD rats
Protocol: Pharmacokinetics were measured by a method of intravenously administrating PEG-EPO conjugates to SD rats (male, 7 weeks old, body weight of 243.53±14.33 g). Specifically, after the administration of 3 µg/kg of EPO, PEG-EPO-TS, or PEG-EPO-Mircera, after 0, 0.5, 1, 2, 4, 8, 24 (1 d), 48 (2 d), 96 (4 d), and 168 ([…]) hours, blood was collected from the rats with an SST tube, centrifuged at 6,000 rpm for 10 minutes at 4°C, and stored at -80°C until the concentration measurement. The concentration of erythropoietin in the blood was measured by ELISA.
The pharmacokinetic analysis of the measured concentration results was performed by non-compartmental analysis (NCA), and the analysis was performed with the program of Phoenix WinNonlin 7.0 (Certara USA Inc., Princeton, NJ, USA). Individual NCA parameters were calculated.

[2] = i.p. 20 µg/kg, 0d (before drug administration)

With “PEG-EPO-Mircera: commercially available pegylated EPO (Mircera, Roche Korea Co., Ltd.), comparative group [reference compound]” the “Reticulocyte (×10^9/L) 0d” value (B6D2F1 mice; i.p. 1.25 µg/kg, 0d (before drug administration)) was 228. 40 ×10^9/L, the “Reticulocyte (%) 7d” value (B6D2F1 mice; i.p. 1.25 µg/kg) was 4.78% and the “RBC Increase (%)” value (B6D2F1 mice; i.p. 1.25 µg/kg) was 15.03%. For the same substance, the “Reticulocyte (×10^9/L) Increase (%)” value (B6D2F1 mice; i.p. 1.25 µg/kg) was 98.51%, the “Reticulocyte (×10^9/L) 0d” value (B6D2F1 mice; i.p. 2.5 µg/kg, 0d (before drug administration)) was 143. 50 ×10^9/L and the “RBC(×10^6/µl) 7d” value (B6D2F1 mice; i.p. 2.5 µg/kg) was 12. 16 ×10^6/µl. For the same substance, the “Reticulocyte (%) 7d” value (B6D2F1 mice; i.p. 2.5 µg/kg) was 4.05%, the “RBC Increase (%)” value (B6D2F1 mice; i.p. 2.5 µg/kg) was 37.25% and the “Reticulocyte (×10^9/L) Increase (%)” value (B6D2F1 mice; i.p. 2.5 µg/kg) was 242.79%. For the same substance, the “Reticulocyte (×10^9/L) 0d” value (B6D2F1 mice; i.p. 5 µg/kg, 0d (before drug administration)) was 134. 10 ×10^9/L, the “RBC(×10^6/µl) 7d” value (B6D2F1 mice; i.p. 5 µg/kg) was 12. 01 ×10^6/µl and the “Reticulocyte (×10^9/L) 7d” value (B6D2F1 mice; i.p. 5 µg/kg) was 1548. 00 ×10^9/L. The “RBC Increase (%)” value (B6D2F1 mice; i.p. 5 µg/kg) was 31.26%, the “RBC(×10^6/µl) 0d” value (B6D2F1 mice; [2]) was 10. 43 ×10^6/µl and the “Reticulocyte (×10^9/L) 0d” value (B6D2F1 mice; [2]) was 194. 70 ×10^9/L. For the same substance, the “RBC(×10^6/µl) 7d” value (B6D2F1 mice; i.p. 20 µg/kg) was 13. 55 ×10^6/µl, the “Reticulocyte (×10^9/L) 7d” value (B6D2F1 mice; i.p. 20 µg/kg) was 2347. 00 ×10^9/L and the “RBC Increase (%)” value (B6D2F1 mice; i.p. 20 µg/kg) was 29.91%. The “concentration of erythropoietin in the blood 0 h” value ([1]; IV 3 µg/kg, 0 h) was 0, the “concentration of erythropoietin in the blood 0.5 h” value ([1]; IV 3 µg/kg, 0.5 h) was 8.7 and the “concentration of erythropoietin in the blood 1h” value ([1]; IV 3 µg/kg, 1 h) was 7.6. For the same substance, the “concentration of erythropoietin in the blood 2h” value ([1]; IV 3 µg/kg, 2 h) was 6.3, the “concentration of erythropoietin in the blood 4h” value ([1]; IV 3 µg/kg, 4 h) was 6.8 and the “concentration of erythropoietin in the blood 8h” value ([1]; IV 3 µg/kg, 8 h) was 4.9. The “concentration of erythropoietin in the blood 24h” value ([1]; IV 3 µg/kg, 24 h) was 3.6, the “concentration of erythropoietin in the blood 48h” value ([1]; IV 3 µg/kg, 48 h) was 2.1 and the “concentration of erythropoietin in the blood 96h” value ([1]; IV 3 µg/kg, 96 h) was 0.7. For the same substance, the “concentration of erythropoietin in the blood 168h” value ([1]; IV 3 µg/kg, 168 h) was 0.1, the “AUCinf” value ([1]; IV 3 µg/kg, NCA, administration to infinity) was 288.60 ng·h/mL and the “AUClast” value ([1]; IV 3 µg/kg, NCA, administration to last measured concentration) was 284.59 ng·h/mL. The “C1” value ([1]; IV 3 µg/kg, NCA, clearance) was 112.24 mL/h/kg, the “T1/2” value ([1]; IV 3 µg/kg, NCA, half-life) was 27.83 h and the “C0” value ([1]; IV 3 µg/kg, NCA, initial concentration) was 9.96 ng/mL. For the same substance, the “Cmax” value ([1]; IV 3 µg/kg, NCA, maximal concentration) was 8.7 ng/mL, the “MRTlast” value ([1]; IV 3 µg/kg, NCA, mean residence time to last measured concentration) was 36.87 h and the “AUC%Extrap (%)” value ([1]; IV 3 µg/kg, NCA, percentage of extrapolated area) was 1.39%. For the same substance, the “Tmax” value ([1]; IV 3 µg/kg, NCA, time at maximal concentration) was 30 min, the “VZ” value ([1]; IV 3 µg/kg, NCA, volume of distribution) was 4506.67 mL/kg and the “Vss” value ([1]; IV 3 µg/kg, NCA, volume of distribution at steady state) was 4406.32 mL/kg. It also gave a half-life ([1]; IV administration) of 27.8 h.
